The record followed here is publication PMC3321182 (The EMBO Journal, 2012).

The target in the assay is T1, N-terminal autoproteolysis product of the crystallized HormR-GAIN fragment of rat CL1 (CIRL/Latrophilin 1) (rat, UniProt O88917 460-837).
T1 sequence (looked up): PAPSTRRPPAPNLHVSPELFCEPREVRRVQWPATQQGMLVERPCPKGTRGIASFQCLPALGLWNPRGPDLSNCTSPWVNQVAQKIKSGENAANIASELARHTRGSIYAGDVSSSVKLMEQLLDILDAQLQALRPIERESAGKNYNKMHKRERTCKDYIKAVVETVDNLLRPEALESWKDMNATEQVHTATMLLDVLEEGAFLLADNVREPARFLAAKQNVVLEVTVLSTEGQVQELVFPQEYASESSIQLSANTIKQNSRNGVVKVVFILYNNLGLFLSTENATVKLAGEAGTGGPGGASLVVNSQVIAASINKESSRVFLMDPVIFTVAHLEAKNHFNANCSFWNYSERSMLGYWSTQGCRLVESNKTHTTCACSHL
As to the kind of experiment: crystal structure.

Turning to TNFAVLMAHREI (peptide, UniProt O88917 838-849, looked up), the binding result was “binds”.
